Results: the domain aggregation screens of Martell et al. (2025)

Test: soluble fraction after stress (log2 fold change); higher = more stays soluble; pooled small domains, quantitative proteomics
Conditions: stress: 75 degC
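Further: 20 min heating vs room temperature control held 20 min.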

In order of rising “soluble fraction (log2)” value:
1. HMSKQKRIKYFLSILNIKSIKQFRKKDLDYFYQKRFIEIQKSSKDKKLVSNQLIELNAAKEYLDEIDFEN  -3.78
2. HMSLDAAAVASKLIKRLSKSPGRRFALDDLAVDVGLPHEQGRPLVRSALELLVRTQQAVEGPPNVFRLFF  -2.51
3. HMSKIRSEINKFSSDADKPILEWLFERYHWASQWRFVARFSEQRYGVLSYEINRVWEPTIEGRALYDQL  -2.27
4. HMSMNGNMIHATVIWKGRYFLVKMFFPQLTKPKRAEVQAQIEKAYPGSRVASYHITDYKPGEQFLHV  -1.84
5. HMSLANTSVKEMLNDLVKNEEPSKPLSDEALVKIFKEKGVKIARRTVAKYRAELNILPSHLRRT  -1.56
6. HMSKQVDVVIYILENTKAADNTYIGTYRKTADGAGVSLDTATKVMRKLQENNFIKKVQNGVYQISPLIMM  -1.42
7. HMSMFTPAQVAQTLTVPPSTLRRWAKRFAPFLSPQSGKKRTYTVADLDTFQRIKELSAQGYTFAQIDQAL  -1.32
8. HMSKFSDTLVYLRKRAGFSQQELADKMEVSRSLVGMYESGQRMPSYEMLEALADIFNVNIDFLTGH  -1.28
9. HMSLTPSQDANRSAILDAARDLFARYGFKKTTMEDIAMALRKGKSSLYYYFKNKEDIFQAVIDS  -1.25
10. HMSLIDYLNELMNEKNITVAQVAKNSGIGEYVYKIFNGERNAKRDTLVAISFGMHLNFEETQLLLRIA  -1.19
11. HMSLTAQVFTDRGKVLLSENKFTEAIDQFTKALAMDKVYIEALNRRIEAYQHLGLTELAAKDEALLGTL  -1.16
12. HMSLEDMILSLSSRIRRGESLHFRELLVAIETKSGMVTIFMAVLELLKQQVMEMRYEDDDIIFT  -1.04
13. HMSKMTLGENLRLLRREKGLSQEQVAQTLFVARQTISKWENGQAEPGVESLKALAKLYGVSLDRLVGA  -1.01
14. HMSKSVEQRRQQIVAWVKEHGQSQVEDLAVRFATSEVTIRKDLAALSQQGLLIRQFGGAVPVPA  -0.982
15. HMSKKMLASIFDTISGIGKKRLKKIWDNYTSLNELKDDSLENIYAKTQIPINLITKIKEKLE  -0.913
16. HMSKKMTNEEILNFLKKVLIKHGKISGFIIDEDDNGPSSSVVASRFGGLLNAYKLINYTPER  -0.906
17. HMSKRDDLLDQASEWLAKLDRDLTVVEERELKAWLGESAAHRETFIQMAKLWDKMESLSRLTDL  -0.898
18. HMSMEIQEIIRQLREKNDWSQEDMAERVGLSKNGYAKIERGETNLNLERLEQIANLFDLSVIDLIEMS  -0.764
19. HMSLPQSKDAVITILRTLPQLDTRAPEVYKLLGPHALDIILEDPEQVAKKINHVGVATAKLWQQALLGFK  -0.751
20. HMSMPEVLSDRELEIFRMIGTGMSTGDIAKKLNISVNTIESHRKKIKDKLGIQKGSELVKAAVQWVSTQQ  -0.741
21. HMSKEEAIQAMKEGKKVTHRFFSSDEWMTIENGFLLLEDGVRISLEDFFNFRSDSLWDNGYELYNPH  -0.628
22. HMSLAVFLQGLLEEKQLKKADVIRRTGMEPTYGYHIFDGHKKHPARSKVLLLALAMGLTVKEAQHLLYYAG  -0.423
23. HMSLQDYYQVLGVFYNAGDKEIKRRWKELINQYHPDLAQAKGASPEEIENYTLKMAEINNAYEQIMKSRKA  -0.396
24. HMSLSASELDQLRMMTKVSHMYHTRGMVQIDIARSLGLSQARVSRLLSAAEDANIVRTVVVA  -0.392
25. HMSMLSQERQSLILDIIKEQGSVTVTRLTEILQSSESTVRRDLSYLASKGKINKVHGGATALG  -0.39
26. HMSLPAYIKISEVIARRINAGQILAGDRLPNERTMAVEFGVAVGTLRKALYHLQVRGLVTRKHGSGNYINK  -0.221
27. HMSKTQYTFREVGSQFELHAPSTNHKIMVDANHPKYGWLSSQEAGRVINVYESGKMTSSQDYYGLYKQS  -0.092
28. HMSKQQVRSILDDIPNIGETRRKALMRQFQSLEKIREASVGQLREVDGMNEKAAQSVYQFFHK  -0.0426
29. HMSMDAVSLANRLLRFFQKRPGRKFTAADLAFETGMNERTGKSLVTSALEILSRTNQIEADGDGFRLKM  0.0354
30. HMSKPLEVFKLTSEPFGFSFNTALGRSYTVEATGDLGVWKAVELFQGSGGEIRFTAKPTSSGGAQFFRVFV  0.0649
31. HMSLEEIPLEERLGPGGLDPVAVYDSLPREMRDAFDSGSVSALREFVNALPAEDAARHMKAMVDSGLWVPT  0.148
32. HMSLPKIVVPTDVTVSQLAKYLEVDAISIIKQLFGMGVVASLNQRLEDEIIQLIGNEFGKEIIFSE  0.162
33. HMSLPALALRQADSLAFKQVIYHDRVVPFNTLARDFVLKLTGKPSYGGMTPEQVVGGWLLRPEVWQNEPM  0.192
34. HMSLHSITIPQEFIGAVIGPGGKVIQEIQKQTGTTITITEKDNKGYVDIFGEDKGALDSALARIKEIVAIP  0.289
35. HMSKPVYILINKPKGFLASSTDKKVKKSVNDLINISNLNKIYPFDNMGRTSSGLLLLSNDLYFKKHFKDKI  0.451
36. HMSMEKNWVPSEDVIEILTRAGMNENFIRELIPEFIIYWSERKDVLISYDSKFIEHARLKWAQHNAE  0.454
37. HMSLETRRYQLPRTDAQTASGLLRSLSGLPGVREVNLSGEGVAYLKVDSKGFDEQNVIKLLAGE  0.47
38. HMSKTQYTFKEVGSQFQLFAPSTKHTIMISADHPKYGWLTNQDQGRVINVYDTGKMTSSQDYYGLYKEVT  0.587
